Assay results as given in patent publication US20150086555A1.

B1: TCN-544 (5082_A19) (antibody, V domains shown)
VH: QVQLQESGPGLVKPSETLSLTCTVSRGSIGHYFWSWIRQPPGKGLEWIGYISYSGSTKYNPSLRSRVTISVDTSKNQFSLNLNSVTATDTALYYCAREDYDILTGAGPGMEVWGQGTTVTVSS
VL: QSMLTQPPSASGTPGQRVTISCSGSSSNIGSNTVNWFKHLPGTAPKLLIYRNDLRPSGVPDRFSGSKSGTSASLAISGLQSEDEADYYCATWDDSLNGFYVFGTGTKVTVL
B2: TCN-542 (5079_A16) (antibody, V domains shown)
VH: QVQLQESGPGLVKPSQTLSLTCTVSGGSISSGNYYWNWVRQHPGKGLEWIGYIYYRGSTFYNPSLKSRVTISIDTSKNQFSLRLSSVTAADTAVYYCAKDTRSSLDNYQYGMDVWGQGTTVTVSS
VL: QTVVTQEPSLTVSPGGTVTLTCASSTGAVTSSYFPNWFQQKPGQAPRPLIYSTTIRHSWTPARFSGSLLGGKAALTLSGVQPEDEADYYCLLYSGGDPVAFGGGTKLTVL

Tests used:
Details in all cases: remark: other sources report otherwise
[1] = target: T1, recombinant soluble homotrimeric HA of A/Solomon Islands/3/06 (H1N1) (Influenza A virus A/Solomon Islands/3/2006(H1N1)); test: trimeric HA microarray, transfection supernatant set 5
[2] = target: recombinant soluble homotrimeric HA of A/Egypt/3300-NAMRU3/08 (H5N1) (Influenza A virus A/Egypt/3300-NAMRU3/2008(H5N1)); test: as above
[3] = target: T2, recombinant soluble homotrimeric HA of A/swine/Ontario/01911-2/99 (H4N6) (Influenza A virus A/Swine/Ontario/01911-2/99 (H4N6)); test: as above
[4] = target: T3, recombinant soluble homotrimeric HA of A/northern shoveler/California/HKWF115/07 (H6) (Influenza A virus A/northern shoveler/California/HKWF115/2007(H6N1)); test: as above
[5] = target: T4, recombinant soluble homotrimeric HA of A/Netherlands/219/03 (H7N7) (Influenza A virus A/Netherlands/219/03(H7N7)); test: as above
[6] = target: T5, recombinant soluble homotrimeric HA of A/Japan/305/57 (H2N2) (Influenza A virus A/Japan/305/1957(H2N2)); test: as above
[7] = target: T6, recombinant soluble homotrimeric HA of A/chicken/Vietnam/NCVD-016/08 (H5N1) (Influenza A virus A/chicken/Vietnam/NCVD-016/2008(H5N1)); test: as above
[8] = target: T7, recombinant soluble homotrimeric HA of A/California/4/09 (H1N1) (Influenza A virus A/California/04/2009(H1N1)); test: as above
[9] = target: T8, recombinant soluble homotrimeric HA of A/duck/Yangzhou/02/05 (H8N4) (Influenza A virus A/duck/Yangzhou/02/2005(H8N4)); test: as above
[10] = target: recombinant soluble homotrimeric HA of A/South Carolina/1/18 (H1N1) (Influenza A virus A/South Carolina/1/18 (H1N1)); test: as above
[11] = target: T1, recombinant soluble homotrimeric HA of …; test: HA microarray, BCC supernatant
[12] = target: T2, recombinant soluble homotrimeric HA of …; test: HA microarray, BCC supernatant
[13] = target: T3, recombinant soluble homotrimeric HA of …; test: HA microarray, BCC supernatant
[14] = target: T4, recombinant soluble homotrimeric HA of …; test: HA microarray, BCC supernatant
[15] = target: T5, recombinant soluble homotrimeric HA of …; test: HA microarray, BCC supernatant
[16] = target: T6, recombinant soluble homotrimeric HA of …; test: HA microarray, BCC supernatant
[17] = target: T7, recombinant soluble homotrimeric HA of …; test: HA microarray, BCC supernatant
[18] = target: T8, recombinant soluble homotrimeric HA of …; test: HA microarray, BCC supernatant
[19] = target: recombinant homotrimeric HA A/Netherlands/219/03 H7N7 (Influenza A virus A/Netherlands/219/03(H7N7)); test: protein microarray, purified IgG, trimeric HA
[20] = target: recombinant homotrimeric HA A/Japan/305/57 H2N2 (Influenza A virus A/Japan/305/1957(H2N2)); test: protein microarray, purified IgG, trimeric HA
[21] = target: recombinant homotrimeric HA A/chicken/Vietnam/NCVD-016/08 H5N1 (Influenza A virus A/chicken/Vietnam/NCVD-016/2008(H5N1)); test: protein microarray, purified IgG, trimeric HA
[22] = target: recombinant homotrimeric HA A/Hong Kong/1073/99 H9N2 (Influenza A virus A/Hong Kong/1073/99 (H9N2)); test: protein microarray, purified IgG, trimeric HA
[23] = target: recombinant homotrimeric HA A/South Carolina/1/18 H1N1 (Influenza A virus A/South Carolina/1/18 (H1N1)); test: protein microarray, purified IgG, trimeric HA
[24] = target: recombinant homotrimeric HA A/swine/Ontario/01911-2/99 H4N6 (Influenza A virus A/Swine/Ontario/01911-2/99 (H4N6)); test: protein microarray, purified IgG, trimeric HA
[25] = target: recombinant homotrimeric HA A/Egypt/3300-NAMRU3/08 H5N1 (Influenza A virus A/Egypt/3300-NAMRU3/2008(H5N1)); test: protein microarray, purified IgG, trimeric HA
[26] = target: recombinant homotrimeric HA A/northern shoveler/California/HKWF115/07 H6N4 (Influenza A virus A/northern shoveler/California/HKWF115/2007(H6N1)); test: protein microarray, purified IgG, trimeric HA
[27] = target: recombinant homotrimeric HA A/duck/Yangzhou/02/05 H8N4 (Influenza A virus A/duck/Yangzhou/02/2005(H8N4)); test: protein microarray, purified IgG, trimeric HA
[28] = target: recombinant homotrimeric HA A/California/4/09 H1N1 (Influenza A virus A/California/04/2009(H1N1)); test: protein microarray, purified IgG, trimeric HA
[29] = target: recombinant homotrimeric HA A/Solomon Islands/3/06 H1N1 (Influenza A virus A/Solomon Islands/3/2006(H1N1)); test: protein microarray, purified IgG, trimeric HA
[30] = target: recombinant homotrimeric HA A/Hong Kong/2108/03 H9N2 (Influenza A virus A/HK/2108/2003(H9N2)); test: protein microarray, purified IgG, trimeric HA
[31] = target: recombinant soluble homotrimeric HA of A/Anhui/1/05 (H5N1) (Influenza A virus A/Anhui/1/2005(H5N1)); test: trimeric HA microarray, transfection supernatant set 5
[32] = target: T9, recombinant soluble homotrimeric HA of A/Vietnam/1203/04 (H5N1) (Influenza A virus A/VietNam/1203/2004(H5N1)); test: as above
[33] = target: recombinant soluble homotrimeric HA of A/Indonesia/5/05 (H5N1) (Influenza A virus A/Indonesia/5/2005(H5N1)); test: as above
[34] = target: recombinant soluble homotrimeric HA of A/Hong Kong/156/97 (H5N1) (Influenza A virus A/Hong Kong/156/97 (H5N1)); test: as above
[35] = target: T9, recombinant soluble homotrimeric HA of …; test: HA microarray, BCC supernatant
[36] = target: recombinant homotrimeric HA A/Hong Kong/156/97 H5N1 (Influenza A virus A/Hong Kong/156/97 (H5N1)); test: protein microarray, purified IgG, trimeric HA
[37] = target: recombinant homotrimeric HA A/Indonesia/5/05 H5N1 (Influenza A virus A/Indonesia/5/2005(H5N1)); test: protein microarray, purified IgG, trimeric HA
[38] = target: recombinant homotrimeric HA A/Vietnam/1203/04 H5N1 (Influenza A virus A/VietNam/1203/2004(H5N1)); test: protein microarray, purified IgG, trimeric HA
[39] = target: recombinant homotrimeric HA A/Anhui/1/05 H5N1 (Influenza A virus A/Anhui/1/2005(H5N1)); test: protein microarray, purified IgG, trimeric HA

Binder | Trimeric HA Binding: RLU [2] [RLU] | Trimeric HA Binding: RLU [3] [RLU] | Trimeric HA Binding: RLU [4] [RLU] | Trimeric HA Binding: RLU [7] [RLU] | Trimeric HA Binding: RLU [9] [RLU] | Trimeric HA Binding: RLU [10] [RLU] | Trimeric HA Binding: RLU [12] [RLU] | Trimeric HA Binding: RLU [14] [RLU] | Trimeric HA Binding: RLU [15] [RLU] | Trimeric HA Binding: RLU [18] [RLU] | Trimeric HA Binding: RLU [20] [RLU] | Trimeric HA Binding: RLU [22] [RLU] | Trimeric HA Binding: RLU [23] [RLU] | Trimeric HA Binding: RLU [25] [RLU] | Trimeric HA Binding: RLU [27] [RLU] | Trimeric HA Binding: RLU [28] [RLU] | other results
B1 | 19400 | 2390 | 2920 | 3070 | 9440 | 1330 | 316 | 1620 | 187 | 464 | 450 | 534 | 148 | 2140 | 380 | 285 | Trimeric HA Binding: RLU [1]: 997 RLU; Trimeric HA Binding: RLU [5]: 4650 RLU; Trimeric HA Binding: RLU [6]: 1000 RLU; Trimeric HA Binding: RLU [8]: 706 RLU; Trimeric HA Binding: RLU [11]: 179 RLU; Trimeric HA Binding: RLU [13]: 1690 RLU; Trimeric HA Binding: RLU [16]: 272 RLU; Trimeric HA Binding: RLU [17]: 281 RLU; Trimeric HA Binding: RLU [19]: 203 RLU; Trimeric HA Binding: RLU [21]: 402 RLU; Trimeric HA Binding: RLU [24]: 154 RLU; Trimeric HA Binding: RLU [26]: 82 RLU; Trimeric HA Binding: RLU [29]: 1010 RLU; Trimeric HA Binding: RLU [30]: 145 RLU
B2 | 14800 | 14300 | 2370 | 5460 | 11600 | 1120 | 350 | 909 | 142 | 332 | 502 | 588 | 117 | 730 | 182 | 238 | Trimeric HA Binding: RLU [31]: 7410 RLU; Trimeric HA Binding: RLU [32]: 29500 RLU; Trimeric HA Binding: RLU [33]: 1760 RLU; Trimeric HA Binding: RLU [34]: 786 RLU; Trimeric HA Binding: RLU [35]: 306 RLU; Trimeric HA Binding: RLU [36]: 894 RLU; Trimeric HA Binding: RLU [37]: 108 RLU; Trimeric HA Binding: RLU [38]: 1060 RLU; Trimeric HA Binding: RLU [39]: 10500 RLU
